# Data as given in patent US20050239140A1 (Janssen / Centocor, published 2005).
# T1: murine Tissue Factor in murine brain extracts (murine, UniProt P20352 29-294)
# T1 sequence (looked up): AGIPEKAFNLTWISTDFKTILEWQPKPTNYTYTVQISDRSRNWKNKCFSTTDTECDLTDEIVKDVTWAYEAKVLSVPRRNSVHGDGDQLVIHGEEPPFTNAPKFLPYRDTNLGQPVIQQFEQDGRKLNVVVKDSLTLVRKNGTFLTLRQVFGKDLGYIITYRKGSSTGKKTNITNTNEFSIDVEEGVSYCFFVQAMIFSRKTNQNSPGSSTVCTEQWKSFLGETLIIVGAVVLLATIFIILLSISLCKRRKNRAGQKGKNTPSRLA
# T2: murine Tissue Factor on B6F10 melanoma cells (murine, UniProt P20352 29-294)
# T2 construct: whole, on cells; also called cell-associated mTF
# T2 sequence (looked up): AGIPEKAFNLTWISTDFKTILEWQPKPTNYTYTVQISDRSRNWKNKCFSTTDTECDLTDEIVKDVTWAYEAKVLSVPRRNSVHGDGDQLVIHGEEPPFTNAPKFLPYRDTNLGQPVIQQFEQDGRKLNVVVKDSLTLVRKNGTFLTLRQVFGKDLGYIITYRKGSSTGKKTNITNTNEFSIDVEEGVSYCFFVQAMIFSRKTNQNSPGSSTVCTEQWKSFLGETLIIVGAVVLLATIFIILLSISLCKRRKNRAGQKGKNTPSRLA
# B1: PHD126 Fab (Fab, V domains shown)
# VH: QVQLVQSGAEVKKPGESLKISCKGSYSFSNYWIGWVRQMPGKGLEWMGFIDPDDSDTNYSPSFQGQVTISADKSISTAYLQWSSLKASDTAMYYCARALYMQGGSFDSWGQGTLVTVSS
# VL: DIELTQPPSVSVAPGQTARISCSGDNLGSYYVSWYQQKPGQAPVLVIYRDTDRPSGIPERFSGSNSGNTATLTISGTQAEDEADYYCQSYDYGVSNQVFGGGTKLTVLG
# B2: PHD104 Fab (Fab, V domains shown)
# VH: QVQLVQSGAEVKKPGESLKISCKGSYSFTSNWIGWVRQMPGKGLEWMGWIYPSDSMTRYSPSFQGQVTISADKSISTAYLQWSSLKASDTAMYYCARYLFGLFDNWGQGTLVTVSS
# VL: DIELTQPPSVSVAPGQTARISCSGDNLGSYYVSWYQQKPGQAPVLVIYNDNNRPSGIPERFSGSNSGNTATLTISGTQAEDEADYYCATYDSSTDVFGGGTKLTVLG
# B3: PHD103 Fab (Fab, V domains shown)
# VH: QVQLVQSGAEVKKPGESLKISCKGSGYSFSNSWIAWVRQMPGKGLEWMGGIIGPGHSYTKYSPSFQGQVTISADKSISTAYLQWSSLKASDTAMYYCARINMGYFDYWGQGTLVTVSS
# VL: DIELTQPPSVSVAPGQTARISCSGDSLGLKKFVSWYQQKPGQAPVLVIYDDSNRPSGIPERFSGSNSGNTATLTISGTQAEDEADYYCGTYDQTIGHDVVFGGGTKLTVLG
# B4: PHD127 Fab (Fab, V domains shown)
# VH: QVQLVQSGAEVKKPGESLKISCKGSYSFTNSWISWVRQMPGKGLEWMGIIDPDDSYTSYSPSFQGQVTISADKSISTAYLQWSSLKASDTAMYYCARGAGYGRMFGDVWGQGTLVTVSS
# VL: DIELTQPPSVSVAPGQTARISCSGDNLGSYYASWYQQKPGQAPVLVIYQDDNRPSGIPERFSGSNSGNTATLTISGTQAEDEADYYCGAYTYSTSWVFGGGTKLTVLG
# notes: HuCAL Fab; The assignment of 8 (VH) and 9 (VL) to PHD127 follows the order of listing
# Assays:
# [1] = target: T1, murine Tissue Factor in murine brain …; test: cell-based or functional assay
# [2] = target: T2, murine Tissue Factor on B6F10 melanoma …; test: FACS on B6F10 melanoma cells that express mTF
binder,measurement,setting,value
B1,"EC50 Conc. (ug/ml), inhibition of fibrin clot formation in human plasma with murine brain extracts as source of mTF",[1],0.23 µg/mL
B2,"EC50 Conc. (ug/ml), inhibition of fibrin clot formation in human plasma with murine brain extracts as source of mTF",[1],23.8 µg/mL
B3,"EC50 Conc. (ug/ml), inhibition of fibrin clot formation in human plasma with murine brain extracts as source of mTF",[1],63.3 µg/mL
B4,"EC50 Conc. (ug/ml), inhibition of fibrin clot formation in human plasma with murine brain extracts as source of mTF",[1],0.82 µg/mL
same,EC50,[2],4.35 nM
